{
  "source": "the supplement of paper PMC11316812",
  "key": {"hTERT-HMEC": {"system": "hTERT-HMEC", "assay": "percentage of EdU-negative (G0-arrested) nuclei per well, 72 h; higher = more G0 arrest", "conditions": "reference: sequence is the full UniProt precursor, the tested protein was the secreted form or ectodomain"}, "MCF7": {"system": "MCF7", "assay": "percentage of EdU-negative (G0-arrested) nuclei per well, 72 h; higher = more G0 arrest", "conditions": "reference: sequence is the full UniProt precursor, the tested protein was the secreted form or ectodomain"}, "[1]": {"conditions": "protein concentration 0.0225 µM"}, "[2]": {"conditions": "protein concentration 0.02372 µM"}, "[3]": {"conditions": "protein concentration 0.2372 µM"}, "[4]": {"conditions": "protein concentration 0.0257143 µM"}, "[5]": {"conditions": "protein concentration 0.257143 µM"}, "[6]": {"conditions": "protein concentration 0.03125 µM"}, "[7]": {"conditions": "protein concentration 0.3125 µM"}, "[8]": {"conditions": "protein concentration 0.0183225 µM"}, "[9]": {"conditions": "protein concentration 0.183225 µM"}},
  "note": "± gives the standard deviation of the averaged measurements.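 Also: secreted proteins added to cultured cells, EdU pulse at the end, nuclei found by Hoechst imaging, EdU status from nuclear versus surrounding ring intensity ratio, PBS as neutral control.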",
  "data": [
    {"sequence": "MIRTLLLSTLVAGALSCGVSTYAPDMSRMLGGEEARPNSWPWQVSLQYSSNGQWYHTCGGSLIANSWVLTAAHCISSSGIYRVMLGQHNLYVAESGSLAVSVSKIVVHKDWNSDQVSKGNDIALLKLANPVSLTDKIQLACLPPAGTILPNNYPCYVTGWGRLQTNGALPDDLKQGQLLVVDYATCSSSGWWGSTVKTNMICAGGDGVICTCNGDSGGPLNCQASDGRWEVHGIGSLTSVLGCNYYYKPSIFTRVSNYNDWINSVIANN", "values": [
      {"measurement": "percentage of EdU-negative", "setting": "hTERT-HMEC; [1]", "result": "4.64 ± 0.17", "unit": "%"},
      {"measurement": "percentage of EdU-negative", "setting": "hTERT-HMEC; protein concentration 0.225 µM", "result": "5.75 ± 0.53", "unit": "%"},
      {"measurement": "percentage of EdU-negative", "setting": "MCF7; [1]", "result": "22.3 ± 2.4", "unit": "%"},
      {"measurement": "percentage of EdU-negative", "setting": "MCF7; protein concentration 0.225 µM", "result": "26.3 ± 0.6", "unit": "%"}
    ]},
    {"sequence": "MISPFLVLAIGTCLTNSLVPEKEKDPKYWRDQAQETLKYALELQKLNTNVAKNVIMFLGDGMGVSTVTAARILKGQLHHNPGEETRLEMDKFPFVALSKTYNTNAQVPDSAGTATAYLCGVKANEGTVGVSAATERSRCNTTQGNEVTSILRWAKDAGKSVGIVTTTRVNHATPSAAYAHSADRDWYSDNEMPPEALSQGCKDIAYQLMHNIRDIDVIMGGGRKYMYPKNKTDVEYESDEKARGTRLDGLDLVDTWKSFKPRYKHSHFIWNRTELLTLDPHNVDYLLGLFEPGDMQYELNRNNVTDPSLSEMVVVAIQILRKNPKGFFLLVEGGRIDHGHHEGKAKQALHEAVEMDRAIGQAGSLTSSEDTLTVVTADHSHVFTFGGYTPRGNSIFGLAPMLSDTDKKPFTAILYGNGPGYKVVGGERENVSMVDYAHNNYQAQSAVPLRHETHGGEDVAVFSKGPMAHLLHGVHEQNYVPHVMAYAACIGANLGHCAPASSAGSLAAGPLLLALALYPLSVLF", "values": [
      {"measurement": "percentage of EdU-negative", "setting": "hTERT-HMEC; [1]", "result": "4.55 ± 0.2", "unit": "%"},
      {"measurement": "percentage of EdU-negative", "setting": "hTERT-HMEC; protein concentration 0.225 µM", "result": "4.93 ± 0.7", "unit": "%"},
      {"measurement": "percentage of EdU-negative", "setting": "MCF7; [1]", "result": "26.1 ± 0.93", "unit": "%"},
      {"measurement": "percentage of EdU-negative", "setting": "MCF7; protein concentration 0.225 µM", "result": "24.1 ± 2.4", "unit": "%"}
    ]},
    {"sequence": "MISPVLILFSSFLCHVAIAGRTCPKPDDLPFSTVVPLKTFYEPGEEITYSCKPGYVSRGGMRKFICPLTGLWPINTLKCTPRVCPFAGILENGAVRYTTFEYPNTISFSCNTGFYLNGADSAKCTEEGKWSPELPVCAPIICPPPSIPTFATLRVYKPSAGNNSLYRDTAVFECLPQHAMFGNDTITCTTHGNWTKLPECREVKCPFPSRPDNGFVNYPAKPTLYYKDKATFGCHDGYSLDGPEEIECTKLGNWSAMPSCKASCKVPVKKATVVYQGERVKIQEKFKNGMLHGDKVSFFCKNKEKKCSYTEDAQCIDGTIEVPKCFKEHSSLAFWKTDASDVKPC", "values": [
      {"measurement": "percentage of EdU-negative", "setting": "hTERT-HMEC; [2]", "result": "5.35 ± 0.089", "unit": "%"},
      {"measurement": "percentage of EdU-negative", "setting": "hTERT-HMEC; [3]", "result": "5.3 ± 0.56", "unit": "%"},
      {"measurement": "percentage of EdU-negative", "setting": "MCF7; [2]", "result": "28.1 ± 0.39", "unit": "%"},
      {"measurement": "percentage of EdU-negative", "setting": "MCF7; [3]", "result": "24.5 ± 3.1", "unit": "%"}
    ]},
    {"sequence": "MKAIIHLTLLALLSVNTATNQGNSADAVTTTETATSGPTVAAADTTETNFPETASTTANTPSFPTATSPAPPIISTHSSSTIPTPAPPIISTHSSSTIPIPTAADSESTTNVNSLATSDIITASSPNDGLITMVPSETQSNNEMSPTTEDNQSSGPPTGTALLETSTLNSTGPSNPCQDDPCADNSLCVKLHNTSFCLCLEGYYYNSSTCKKGKVFPGKISVTVSETFDPEEKHSMAYQDLHSEITSLFKDVFGTSVYGQTVILTVSTSLSPRSEMRADDKFVNVTIVTILAETTSDNEKTVTEKINKAIRSSSSNFLNYDLTLRCDYYGCNQTADDCLNGLACDCKSDLQRPNPQSPFCVASSLKCPDACNAQHKQCLIKKSGGAPECACVPGYQEDANGNCQKCAFGYSGLDCKDKFQLILTIVGTIAGIVILSMIIALIVTARSNNKTKHIEEENLIDEDFQNLKLRSTGFTNLGAEGSVFPKVRITASRDSQMQNPYSRHSSMPRPDY [Q9H3R2]", "values": [
      {"measurement": "percentage of EdU-negative", "setting": "hTERT-HMEC; [4]", "result": "5.64 ± 0.33", "unit": "%"},
      {"measurement": "percentage of EdU-negative", "setting": "hTERT-HMEC; [5]", "result": "5.31 ± 0.37", "unit": "%"},
      {"measurement": "percentage of EdU-negative", "setting": "MCF7; [4]", "result": "22.5 ± 1.3", "unit": "%"},
      {"measurement": "percentage of EdU-negative", "setting": "MCF7; [5]", "result": "26.7 ± 0.67", "unit": "%"}
    ]},
    {"sequence": "MKALGAVLLALLLFGRPGRGQTQQEEEEEDEDHGPDDYDEEDEDEVEEEETNRLPGGRSRVLLRCYTCKSLPRDERCNLTQNCSHGQTCTTLIAHGNTESGLLTTHSTWCTDSCQPITKTVEGTQVTMTCCQSSLCNVPPWQSSRVQDPTGKGAGGPRGSSETVGAALLLNLLAGLGAMGARRP [Q8IV16]", "values": [
      {"measurement": "percentage of EdU-negative", "setting": "hTERT-HMEC; [1]", "result": "4.99 ± 0.54", "unit": "%"},
      {"measurement": "percentage of EdU-negative", "setting": "hTERT-HMEC; protein concentration 0.225 µM", "result": "4.82 ± 0.83", "unit": "%"},
      {"measurement": "percentage of EdU-negative", "setting": "MCF7; [1]", "result": "28.3 ± 1.3", "unit": "%"},
      {"measurement": "percentage of EdU-negative", "setting": "MCF7; protein concentration 0.225 µM", "result": "24.9 ± 0.96", "unit": "%"}
    ]},
    {"sequence": "MKALIAALLLITLQYSCAVSPTDCSAVEPEAEKALDLINKRRRDGYLFQLLRIADAHLDRVENTTVYYLVLDVQESDCSVLSRKYWNDCEPPDSRRPSEIVIGQCKVIATRHSHESQDLRVIDFNCTTSSVSSALANTKDSPVLIDFFEDTERYRKQANKALEKYKEENDDFASFRVDRIERVARVRGGEGTGYFVDFSVRNCPRHHFPRHPNVFGFCRADLFYDVEALDLESPKNLVINCEVFDPQEHENINGVPPHLGHPFHWGGHERSSTTKPPFKPHGSRDHHHPHKPHEHGPPPPPDERDHSHGPPLPQGPPPLLPMSCSSCQHATFGTNGAQRHSHNNNSSDLHPHKHHSHEQHPHGHHPHAHHPHEHDTHRQHPHGHHPHGHHPHGHHPHGHHPHGHHPHCHDFQDYGPCDPPPHNQGHCCHGHGPPPGHLRRRGPGKGPRPFHCRQIGSVYRLPPLRKGEVLPLPEANFPSFPLPHHKHPLKPDNQPFPQSVSESCPGKFKSGFPQVSMFFTHTFPK", "values": [
      {"measurement": "percentage of EdU-negative", "setting": "hTERT-HMEC; [6]", "result": "4.57 ± 0.34", "unit": "%"},
      {"measurement": "percentage of EdU-negative", "setting": "hTERT-HMEC; [7]", "result": "4.52 ± 0.3", "unit": "%"},
      {"measurement": "percentage of EdU-negative", "setting": "MCF7; [6]", "result": "26 ± 1.3", "unit": "%"},
      {"measurement": "percentage of EdU-negative", "setting": "MCF7; [7]", "result": "25.5 ± 0.58", "unit": "%"}
    ]},
    {"sequence": "MKALIVLGLVLLSVTVQGKVFERCELARTLKRLGMDGYRGISLANWMCLAKWESGYNTRATNYNAGDRSTDYGIFQINSRYWCNDGKTPGAVNACHLSCSALLQDNIADAVACAKRVVRDPQGIRAWVAWRNRCQNRDVRQYVQGCGV", "values": [
      {"measurement": "percentage of EdU-negative", "setting": "hTERT-HMEC; [8]", "result": "5.192 ± 0.011", "unit": "%"},
      {"measurement": "percentage of EdU-negative", "setting": "hTERT-HMEC; [9]", "result": "4.83 ± 0.071", "unit": "%"},
      {"measurement": "percentage of EdU-negative", "setting": "MCF7; [8]", "result": "25.9 ± 0.84", "unit": "%"},
      {"measurement": "percentage of EdU-negative", "setting": "MCF7; [9]", "result": "24.489 ± 0.011", "unit": "%"}
    ]}
  ]
}
